Experimental findings from publication doi:10.1101/391136 are described below.

In general, Kd refers to the constant that tells how readily two partners part at equilibrium. High values mean weaker binding, low ones tighter binding. As a reminder, the stoichiometry N is a count of units in the complex or per binding partner.

Experiment [1] concerns the target S100A1. Nature of the experiment: ITC. In general terms: In ITC the heat of successive injections is recorded.
Experiment [2] concerns the target S100A1. Nature of the experiment: other fluorescence titration.

In experiment [1], “S100A4 (from UniProt P26447 4-101) (natural protein)” came in with a Kd of 6.37 µM and a stoichiometry N of 1. In addition, the Kd in experiment [2] amounted to 10 µM.
